Measured values published in patent US20190270826A1 (Janssen / Centocor, published 2019).
Residue numbers refer to the chain shown, from its start.

B1: IC3B1 (bispecific antibody, human IgG4 S228P, kappa, lambda, F234A L235A)
heavy 1: EVQLVESGGGLVQPGGSLKLSCAASGFTFNTYAMNWVRQASGKGLEWVGRIRSKYNAYATYYAASVKGRFTISRDDSKNTAYLQMNSLKTEDTAVYYCTRHGNFGNSYVSWFAYWGQGTLVTVSSASTKGPSVFPLAPCSRSTSESTAALGCLVKDYFPEPVTVSWNSGALTSGVHTFPAVLQSSGLYSLSSVVTVPSSSLGTKTYTCNVDHKPSNTKVDKRVESKYGPPCPPCPAPEAAGGPSVFLFPPKPKDTLMISRTPEVTCVVVDVSQEDPEVQFNWYVDGVEVHNAKTKPREEQFNSTYRVVSVLTVLHQDWLNGKEYKCKVSNKGLPSSIEKTISKAKGQPREPQVYTLPPSQEEMTKNQVSLTCLVKGFYPSDIAVEWESNGQPENNYKTTPPVLDSDGSFLLYSKLTVDKSRWQEGNVFSCSVMHEALHNHYTQKSLSLSLGK
light 1: QAVVTQEPSLTVSPGGTVTLTCRSSTGAVTTSNYANWVQQKPGQAPRGLIGGTNKRAPGTPARFSGSLLGGKAALTLSGAQPEDEAEYYCALWYSNLWVFGGGTKLTVLGQPKAAPSVTLFPPSSEELQANKATLVCLISDFYPGAVTVAWKADSSPVKAGVETTTPSKQSNNKYAASSYLSLTPEQWKSHRSYSCQVTHEGSTVEKTVAPTECS
heavy 2: not shown
light 2: EIVLTQSPGTLSLSPGERATLSCRASQSISNDLNWYQQKPGKAPKLLIYYASSLQSGVPSRFSGSGSGTDFTLTINSLQPEDFATYYCQQSFTAPLTFGQGTKVEIKRTVAAPSVFIFPPSDEQLKSGTASVVCLLNNFYPREAKVQWKVDNALQSGNSQESVTEQDSKDSTYSLSSTLTLSKADYEKHKVYACEVTHQGLSSPVTKSFNRGEC
notes: IgG4-PAA, Fab arm exchange; also called IAPB47 x CD3B220
B2: IC3B9 (bispecific antibody, human IgG4 S228P, kappa, lambda, F234A L235A)
heavy 1: B1 heavy 1
light 1: B1 light 1
heavy 2: not shown
light 2: not shown
notes: IgG4-PAA, Fab arm exchange; also called IAPB25 x CD3B220
B3: IC3B13 (bispecific antibody, human IgG4 S228P, lambda, F234A L235A)
heavy 1: B1 heavy 1
light 1: B1 light 1
heavy 2: not shown
light 2: QSALTQPRSVSGSPGHSVTISCTGTSSDVGDYNYVSWYQQRPGKVPKLLIYDVSKRPSGVPDRFSGSKSGNTASLTISGLQAEDEAIYFCASYAGNYNVVFGGGTKLTVLGQPKAAPSVTLFPPSSEELQANKATLVCLISDFYPGAVTVAWKADSSPVKAGVETTTPSKQSNNKYAASSYLSLTPEQWKSHRSYSCQVTHEGSTVEKTVAPTECS
notes: IgG4-PAA, Fab arm exchange; also called IAPB63 x CD3B220
B4: IC3B8 (bispecific antibody, human IgG4 S228P, kappa, lambda, F234A L235A)
heavy 1: B1 heavy 1
light 1: B1 light 1
heavy 2: not shown
light 2: not shown
notes: IgG4-PAA, Fab arm exchange; also called IAPB23 x CD3B220
B5: IC3B4 (bispecific antibody, human IgG4 S228P, kappa, lambda, F234A L235A)
heavy 1: B1 heavy 1
light 1: B1 light 1
heavy 2: not shown
light 2: not shown
notes: IgG4-PAA, Fab arm exchange; also called IAPB61 x CD3B220
B6: IC3B14 (bispecific antibody, human IgG4 S228P, lambda, F234A L235A)
heavy 1: B1 heavy 1
light 1: B1 light 1
heavy 2: not shown
light 2: B3 light 2 with A91S
notes: IgG4-PAA, Fab arm exchange; also called IAPB64 x CD3B220
B7: IC3B12 (bispecific antibody, human IgG4 S228P, kappa, lambda, F234A L235A)
heavy 1: B1 heavy 1
light 1: B1 light 1
heavy 2: not shown
light 2: not shown
notes: IgG4-PAA, Fab arm exchange; also called IAPB55 x CD3B220
B8: IAPB57, 5G08 (hybridoma mAb, unpurified) (antibody, V domains shown)
VH: QLQLQESGPGLVKPSETLSLTCTVSGGSISSSTYYWGWIRQPPGKGLEWIGSIYFTGSTDYNPSLKSRVSISVDTSKNQFSLKLSSVTAADTAVYYCAKEDDSSGYYSFDYWGQGNLVTVSS
VL: DIQLTQSPSFLSASVGDRVTITCRASQGISSYLAWYQQKPGKAPKLLIYAASTLQSGVPSRFSGSGSGTEFTLTISSLQPEDFATYYCQQVNSYPLTFGGGTKVEIK
notes: OmniRat hybridoma product (rat constant region)
B9: IAPB55, 22A09 (hybridoma mAb, unpurified) (antibody, V domains shown)
VH: QLQLQESGPGLVKPSETLSLTCTVSGVSISSSTYYWGWLRQPPGMGLEWTGSIYFTGNTYYNPSLKSRVTISVDTSRNQFSLKLSSVTAADTAVYYCGSLFGDYGYFDYWGQGTLVTVSS
VL: EIVMTQSPATLSVSPGERATLSCRASQFISSNLAWYQQKPGQAPRLLIYGASTRATGIPARFSGSGSGTDFTLTISSLQSEDFAVYYCQQYNNWPFTFGPGTKVDIK
notes: as for B8
B10: IAPB61, 25D12 (hybridoma mAb, unpurified) (antibody, V domains shown)
VH: B9 VH
VL: B9 VL with S14P, F96S
notes: as for B8

The binders below were run against T1, recombinant cyno IL1RAP ECD (cynomolgus monkey, UniProt P59822 21-367 (rhesus entry)) (assay: SPR).
T1 construct: also called rcynoIL1RAP
T1 sequence: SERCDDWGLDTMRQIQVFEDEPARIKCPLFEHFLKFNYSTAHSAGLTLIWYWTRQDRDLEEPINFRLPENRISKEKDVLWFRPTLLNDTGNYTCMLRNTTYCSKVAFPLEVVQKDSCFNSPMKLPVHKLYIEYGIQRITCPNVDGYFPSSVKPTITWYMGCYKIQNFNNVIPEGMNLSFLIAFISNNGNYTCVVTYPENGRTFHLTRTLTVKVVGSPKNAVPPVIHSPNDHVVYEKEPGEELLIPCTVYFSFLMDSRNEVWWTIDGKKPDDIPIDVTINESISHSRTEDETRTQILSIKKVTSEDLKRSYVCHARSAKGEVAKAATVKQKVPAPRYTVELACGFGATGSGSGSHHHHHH

Kd [nM] | Binder
0.212 | B1
27.8 | B2
0.451 | B3
2.7 | B4
10.2 | B5
0.993 | B6
0.218 | B7

These binders were tested against T2, recombinant human IL1RAP ECD (human, UniProt Q9NPH3 21-367) (assay: SPR).
T2 construct: His-tagged; also called hIL1RAP-ECD; rhuIL1RAP
T2 sequence: T1 sequence with F183L, P273T, T326K

Kd [nM] | Binder
1.09 | B1
29.7 | B2
0.122 | B3
9.96 | B4
11.2 | B5
0.246 | B6
0.313 | B7

These binders were tested against T1, recombinant cyno IL1RAP ECD (assay: SPR, summary).

Kd [nM] | Binder
0.212 | B1
27.8 | B2
0.451 | B3
2.7 | B4
10.2 | B5
0.993 | B6
0.218 | B7

Each binder was assayed against T2, recombinant human IL1RAP ECD (assay: SPR, summary).

Kd [nM] | Binder
1.09 | B1
29.7 | B2
0.122 | B3
9.96 | B4
11.2 | B5
0.246 | B6
0.313 | B7

Target: T2, recombinant human IL1RAP ECD
Assay: SPR
Remark: another data set of the same source

Kd [nM] | koff [s⁻¹] | kon [M⁻¹ s⁻¹] | Binder
1.09 | 0.000759 | 697000 | B1
29.7 | 0.0547 | 1.84e+06 | B2
0.122 | 0.000114 | 938000 | B3
9.96 | 0.00298 | 300000 | B4
11.2 | 0.0129 | 1.15e+06 | B5
0.246 | 0.000171 | 695000 | B6
0.313 | 0.000361 | 1.15e+06 | B7

Target: T1, recombinant cyno IL1RAP ECD
Assay: SPR
Remark: another data set of the same source

Kd [nM] | koff [s⁻¹] | kon [M⁻¹ s⁻¹] | Binder
0.212 | 0.000236 | 1.11e+06 | B1
27.8 | 0.053 | 1.91e+06 | B2
0.451 | 0.000532 | 1.18e+06 | B3
2.7 | 0.00121 | 448000 | B4
10.2 | 0.0148 | 1.46e+06 | B5
0.993 | 0.000858 | 864000 | B6
0.218 | 0.000331 | 1.52e+06 | B7

These binders were tested against T2, recombinant human IL1RAP ECD (assay: SPR (ProteOn)).
Method: The rates of IL1RAP ECD association and dissociation were measured for each variant. The biosensor surface was prepared by covalently coupling Goat anti-Human IgG (Fc) to the surface of a GLC chip (BioRad) using the manufacturer instructions for amine-coupling chemistry. […] The RU immobilized also included a goat anti-mouse Fc antibody that was added to capture other antibodies not included in the ones reported here. Since the mixture was 1:1 about 50% of these RU immobilized are expected to be goat anti-human Fc. The kinetic experiments were performed at 25° C. in running buffer (PBS pH 7.4, 0.005% P20, 3 mM EDTA). […] (1:3) serial dilutions of human IL1RAP ECD, starting at 400 nM were prepared in running buffer. […] The reference spots (Goat anti-Human IgG (Fc)-modified surface) containing no candidate captured were used as a reference surface. Capture of mAb was followed by a 3 minute injection (association phase) of antigen at 40 μL/min, followed by 10 minutes of buffer flow (dissociation phase). […] Data was processed on the instrument software. Double reference subtraction of the data was performed by subtracting the curves generated by buffer injection from the reference-subtracted curves for analyte injections. Kinetic analysis of the data was performed using 1:1 Langmuir binding model with group fit.

Kd [nM] | koff [s⁻¹] | kon [M⁻¹ s⁻¹] | Binder
0.16 | 0.000129 | 807000 | B8
1.64 | 0.000747 | 454000 | B9
17.5 | 0.0142 | 810000 | B10

These binders were tested against T2, recombinant human IL1RAP ECD (assay: SPR; human KD over cyno KD).

Hu/Cyno KD Ratio | Binder
5.1 | B1
1.1 | B2
0.3 | B3
3.7 | B4
1.1 | B5
0.2 | B6
1.4 | B7

These binders were tested against T3, human IL1RAP on cells (endogenous) (human, UniProt Q9NPH3 21-570) (assay: cell-based or functional assay).
T3 sequence (looked up): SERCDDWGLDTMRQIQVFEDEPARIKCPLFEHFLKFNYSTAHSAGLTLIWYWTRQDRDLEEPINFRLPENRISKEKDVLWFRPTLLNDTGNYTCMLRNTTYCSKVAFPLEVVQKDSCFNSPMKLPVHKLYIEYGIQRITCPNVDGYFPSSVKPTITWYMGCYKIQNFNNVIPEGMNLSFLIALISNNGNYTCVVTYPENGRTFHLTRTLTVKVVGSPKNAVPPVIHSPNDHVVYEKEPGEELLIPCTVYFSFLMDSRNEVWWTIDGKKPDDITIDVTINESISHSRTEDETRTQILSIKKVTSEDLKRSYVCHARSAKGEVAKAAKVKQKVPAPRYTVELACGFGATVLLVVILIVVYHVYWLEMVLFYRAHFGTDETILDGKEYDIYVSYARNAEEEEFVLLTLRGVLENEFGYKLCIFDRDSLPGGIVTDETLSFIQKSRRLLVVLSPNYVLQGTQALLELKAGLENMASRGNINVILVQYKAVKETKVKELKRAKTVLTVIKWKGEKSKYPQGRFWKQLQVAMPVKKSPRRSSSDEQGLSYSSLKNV

Binder | EC50, T-cell mediated cytotoxicity [nM]
B1 | 0.049
B3 | 0.054
B4 | 0.138
B6 | 0.1
B7 | 1.3
